This assay concerns the target normal MITF (M type), expressed from plasmid pSU063 (MITF-M/pCDNA3) in COS7 cells (UniProt Q08874). The assay is described as follows: cell-based or functional assay.
Sequence of UniProt Q08874 (Q08874 other isoform, or with tags, fused parts or gaps limits assumed): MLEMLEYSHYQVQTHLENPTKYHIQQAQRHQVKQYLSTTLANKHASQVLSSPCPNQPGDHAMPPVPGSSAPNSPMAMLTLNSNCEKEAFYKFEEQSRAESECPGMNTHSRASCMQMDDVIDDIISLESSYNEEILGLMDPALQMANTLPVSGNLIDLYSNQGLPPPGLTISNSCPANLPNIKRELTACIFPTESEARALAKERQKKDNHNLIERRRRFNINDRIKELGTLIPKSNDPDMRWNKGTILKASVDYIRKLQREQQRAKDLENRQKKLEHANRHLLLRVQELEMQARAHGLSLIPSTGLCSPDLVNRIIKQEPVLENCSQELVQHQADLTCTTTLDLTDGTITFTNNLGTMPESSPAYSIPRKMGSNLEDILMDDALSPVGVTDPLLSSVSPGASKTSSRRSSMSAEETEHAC

“His Tag-PTD-mi variant of MITF (from UniProt Q08874 119-526)”: the Luciferase activity (c-kit promoter R-luc reporter in COS7 cells, PBS addition taken as 1) (relative to PBS = 1) came out at 0.92.
Consider “His Tag-PTD-wh variant of MITF (from UniProt Q08874 119-526)”, for which the Luciferase activity (c-kit promoter R-luc reporter in COS7 cells, PBS addition taken as 1) (relative to PBS = 1) was 0.72.

For the origin of these results see patent publication US20040248787A1.
